The supplement of paper PMC9112550, “Optimization of the antimicrobial peptide Bac7 by deep mutational scanning” (BMC Biology, 2022)

Tested on: Escherichia coli TOP10
Assay: shrunken log2 fold change of peptide-encoding DNA abundance (4.5 h post-induction vs induction); higher = less antimicrobial activity (less host growth inhibition)
Conditions: time post-induction: 4.5 h; library: site-saturation at positions 5, 18, 19, 20
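Further: peptides expressed intracellularly from a pBAD plasmid library in pooled LB shake-flask culture, induced with 0.3% L-arabinose, DNA abundance read by NGS, three biological replicates, DESeq2 with apeglm shrinkage.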

Sequence	shrunken log2 fold change
RRIRMRPPRLPRPRPRPIHAPRP	-0.0962
RRIRSRPPRLPRPRPRPEAGPRP	1.34
RRIRSRPPRLPRPRPRPEGWPRP	1.18
RRIRARPPRLPRPRPRPGLIPRP	0.0698
RRIRCRPPRLPRPRPRPDVWPRP	0.198
RRIRLRPPRLPRPRPRPTNIPRP	-0.421
RRIRVRPPRLPRPRPRPCDEPRP	-0.488
RRIRCRPPRLPRPRPRPADKPRP	-0.0716
RRIRFRPPRLPRPRPRPRAFPRP	0.0447
RRIRIRPPRLPRPRPRPIARPRP	0.136
RRIRYRPPRLPRPRPRPPIMPRP	-1.14
RRIRGRPPRLPRPRPRPIMAPRP	0.401
RRIRPRPPRLPRPRPRPGHLPRP	0.234
RRIRTRPPRLPRPRPRPCNFPRP	-1.39
RRIRYRPPRLPRPRPRPQWQPRP	-0.00114
RRIRDRPPRLPRPRPRPMHAPRP	0.121
RRIRERPPRLPRPRPRPDVAPRP	0.087
RRIRYRPPRLPRPRPRPNSPPRP	-0.21
RRIRERPPRLPRPRPRPHNRPRP	-0.0587
RRIRERPPRLPRPRPRPLQDPRP	-0.133
RRIRHRPPRLPRPRPRPLYVPRP	-0.272
RRIRFRPPRLPRPRPRPEISPRP	-0.048
RRIRYRPPRLPRPRPRPSLSPRP	-0.623
RRIRKRPPRLPRPRPRPQMLPRP	-0.167
RRIRCRPPRLPRPRPRPVGDPRP	0.551

Sequence	shrunken log2 fold change
RRIRSRPPRLPRPRPRPWGNPRP	-0.236
RRIRHRPPRLPRPRPRPGWAPRP	0.344
RRIRYRPPRLPRPRPRPAFQPRP	-0.00804
RRIRARPPRLPRPRPRPNMIPRP	-0.194
RRIRERPPRLPRPRPRPWTSPRP	-0.028
RRIRKRPPRLPRPRPRPQHIPRP	-0.243
RRIRTRPPRLPRPRPRPHDKPRP	-0.51
RRIRSRPPRLPRPRPRPRPAPRP	0.467
RRIRERPPRLPRPRPRPSFLPRP	-0.789
RRIRLRPPRLPRPRPRPPCDPRP	-0.29
RRIRFRPPRLPRPRPRPEARPRP	-0.137
RRIRQRPPRLPRPRPRPAGLPRP	-0.158
RRIRLRPPRLPRPRPRPDLIPRP	-0.0276
RRIRLRPPRLPRPRPRPVQCPRP	0.079
RRIRMRPPRLPRPRPRPSTWPRP	0.081
RRIRDRPPRLPRPRPRPNFCPRP	-0.00997
RRIRPRPPRLPRPRPRPICGPRP	0.103
RRIRDRPPRLPRPRPRPHDLPRP	-0.0733
RRIRVRPPRLPRPRPRPQAHPRP	-0.209
RRIRMRPPRLPRPRPRPNEDPRP	0.186
RRIRYRPPRLPRPRPRPKPLPRP	0.276
RRIRKRPPRLPRPRPRPTMMPRP	0.316
RRIRARPPRLPRPRPRPCMAPRP	0.104
RRIRSRPPRLPRPRPRPASWPRP	0.363
RRIRLRPPRLPRPRPRPIFMPRP	-0.414

Sequence	shrunken log2 fold change
RRIRKRPPRLPRPRPRPMPCPRP	-0.0242
RRIRIRPPRLPRPRPRPLDWPRP	-0.418
RRIRLRPPRLPRPRPRPCMYPRP	-0.674
RRIRSRPPRLPRPRPRPRYPPRP	-0.036
RRIRDRPPRLPRPRPRPKCHPRP	0.028
RRIRRRPPRLPRPRPRPDFNPRP	-0.155
RRIRNRPPRLPRPRPRPIYPPRP	-0.246
RRIRFRPPRLPRPRPRPMMAPRP	0.189
RRIRCRPPRLPRPRPRPFRLPRP	-0.0979
RRIRIRPPRLPRPRPRPPCSPRP	-0.339
RRIRRRPPRLPRPRPRPDFHPRP	-0.111
RRIRSRPPRLPRPRPRPKRVPRP	0.0219
RRIRPRPPRLPRPRPRPNRQPRP	-0.0342
RRIRCRPPRLPRPRPRPTYWPRP	-0.113
RRIRERPPRLPRPRPRPKNWPRP	1.59
RRIRQRPPRLPRPRPRPFRNPRP	0.033
RRIRWRPPRLPRPRPRPIYAPRP	-0.0827
RRIRYRPPRLPRPRPRPIGMPRP	-0.265
RRIRERPPRLPRPRPRPFQIPRP	-0.145
RRIRYRPPRLPRPRPRPVENPRP	-0.0898
RRIRFRPPRLPRPRPRPWTTPRP	-0.0381
RRIRARPPRLPRPRPRPFCHPRP	-0.083
RRIRQRPPRLPRPRPRPMMPPRP	0.0665
RRIRHRPPRLPRPRPRPTTTPRP	-0.0186
RRIRGRPPRLPRPRPRPYEPPRP	0.0834
